Data published in the supplement of paper PMC10567573.

B1: PHTF1 (parent)
chain: RVKLISNKGTETDNDPSCVHPIIK
B2: SNX8 (parent)
chain: RMVPALPPKRMLGADREFIEARRR

Variants of: B1
Assay: protein stability index of a GFP-peptide fusion (GPS, HEK-293T) (PSI 1-6); higher = more stable
Conditions: c terminus: a fixed tail appended
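Also: lentivirally expressed fusions sorted by FACS into six bins by GFP to DsRed ratio, PSI derived from sequencing read proportions per bin multiplied by bin number.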

Protein stability index of substitutions, site by site:
R1: V 3.41, K 4.05, G 4.15, H 4.12, Q 4.45, L 3.51, E 4.14, P 4.44, Y 2.79, M 3.66, A 4.57, C 3.93, T 4.2, N 4.63, W 2.81, I 3.16, D 4.74, F 2.21, S 4.56
V2: E 4.78, K 4.6, A 4.41, R 4.45, N 4.5, H 4.2, Q 4.65, G 3.52, D 4.54, F 3.26, P 4.68, S 4.44, T 4.35, C 4.02, I 4.18, Y 3.54, W 3.61, M 3.97, L 4.19
K3: E 4.64, D 4.48, A 4.38, C 3.52, F 3.29

Variants of: B2
Assay: as above
Conditions: c terminus: a fixed tail appended

Protein stability index: each site, then its substitutions
E20: F 3.12, G 4.02, L 3.9, H 3.98, M 3.39, C 4.06, R 4.28, W 3.26, S 4, Y 3.68, D 4.31, P 4.24, K 3.94, V 4.11, T 3.99, A 3.51, I 3.27, N 4.12, Q 4.01
I19: Q 4.29, Y 3.98, D 4.41, R 4.16, E 4.11, T 4.39, G 3.96, L 3.06, V 4.09, P 4.65, N 3.73, K 4.26, W 3.82, C 3.36, H 3.35, M 3.55, F 3.61, S 3.43, A 4.23
R23: P 3.66, S 3.56, Q 3.11, C 2.95, K 4.02, F 1.75, H 2.21, A 2.54, G 3.79, E 4.16, V 3.4, D 4.53, W 1.28, M 2.4, I 2.58, Y 2.97, T 3.56, L 3.65, N 3.94
A21: M 3.04, S 3.12, E 3.43, G 4.32, H 4.32, N 4.52, P 3.88, V 3.76, T 3.96, L 4.1, C 4.08, W 2.67, D 3.83, Y 3.24, I 3.34, R 3.56, K 4.19, Q 3.61, F 3.31
R22: G 4.02, Q 4.05, A 4.33, D 4.53, Y 3.43, C 4, P 3.79, L 2.92, M 3.16, S 3.75, E 4.43, F 3.58, T 3.75, I 2.74, H 3.76, N 3.77, K 4.09, V 3.33, W 2.73
R24: L 2.92, G 3.94, F 3.2, M 2.96, S 3.46, T 3.95, I 3.11, E 4.23, P 3.53, V 3.31, N 3.66, K 3.74, Q 3.52, H 3.83, D 4, A 4, C 3.53, Y 2.38, W 3.05
F18: N 4.45, S 4.38, R 4.52, M 3.78, T 4.2, W 3.75, Q 4.46, V 4.12, P 4.64, Y 4.07
